Test results as given in patent US10538591B2, “Anti-fibulin-3 antibodies and uses thereof” (THE BRIGHAM AND WOMEN'S HOSPITAL, INC., priority 2014, dated 2020).
“Also recorded” adds a separate entry of the source.

What was measured:
[1] = test system: Notch signaling induced by fibulin-3; assay: Notch reporter in ARPE19 retinal pigmented epithelial cells; assay type: cell-based, human; details: 100 μg/ml, 0, 2, 4, 6 and 24 h
Protocol: Cells were co-transfected with plasmids carrying fibulin-3 cDNA (Fib3 OE) or a control cDNA (Control) and incubated in serum-free conditions for 24 h (FIG. 18). The following day mAb428.3C11 (100 μg/ml) was added to the cultures and Notch (left panel) or NF-kB (right panel) signaling activities were measured after 0, 2, 4, 6, and 24 h. […] The inhibitory effect caused by the antibody on control reporter signaling (black dots) may have been caused by blocking of endogenous fibulin-3 that is highly expressed by ARPE19 cells.

[2] = test system: GBM34 glioblastoma stem cells; assay: Intravenous injection in subcutaneous GBM34 xenografts, growth and overall survival; assay type: in vivo, Athymic mice
Protocol: Athymic mice received SQ bilateral implants of GBM34 glioblastoma stem cells (1×10^6 cells/50 μl). Tumors were allowed to grow until they reached a volume of 100 mm^3. Animals (N=5/group) were then injected with mAb428.2 (30 mg/kg) or non-immune mouse IgG1 every day, for a total of 8 days (total: 8 injections). Mice were monitored for tumor growth and sacrificed when any of their tumors reached a length >=20 mm. Long-term survivors (>40 days) in which length was not increasing above 20 mm were euthanized when tumors reached width >=15 mm or presented ulcerations. […] Curves for overall survival were compared by long-rank test

[3] = target: T1, fibulin-3 in human primary glioblastoma (Homo sapiens, UniProt Q12805); assay: Immunohistochemistry of human primary glioblastoma sections; details: anti-Fib3/911 10 μg/ml, mAb428.3C11 40 μg/ml, mAb3-5 5 μg/ml
T1 construct: specificity of mAb428.3C11 to detect native fibulin-3 in tumor tissue; from tissue; host or cells: frozen sections of human primary glioblastoma
T1 sequence (Q12805 18-493): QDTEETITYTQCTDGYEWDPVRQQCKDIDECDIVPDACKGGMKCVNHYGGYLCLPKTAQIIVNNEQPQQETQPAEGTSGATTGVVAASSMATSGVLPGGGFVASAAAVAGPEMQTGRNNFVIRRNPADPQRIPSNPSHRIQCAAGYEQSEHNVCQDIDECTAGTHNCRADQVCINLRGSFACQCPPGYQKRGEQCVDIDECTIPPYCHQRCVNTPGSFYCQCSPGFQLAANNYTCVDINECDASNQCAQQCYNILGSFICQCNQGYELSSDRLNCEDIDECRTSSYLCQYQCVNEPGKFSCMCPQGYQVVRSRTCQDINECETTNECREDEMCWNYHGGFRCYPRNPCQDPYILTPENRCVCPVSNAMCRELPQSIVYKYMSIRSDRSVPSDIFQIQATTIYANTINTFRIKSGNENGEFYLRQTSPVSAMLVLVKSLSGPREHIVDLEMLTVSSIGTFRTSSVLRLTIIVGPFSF
Protocol: Frozen sections of human primary glioblastoma and normal adult human brain were fixed in ethanol/acetate buffer and processed for immunohistochemistry with the following anti-fibulin-3 antibodies: rabbit polyclonal anti-Fib3/911 (10 μg/ml), mouse monoclonal anti-fibulin-3 mAb428.3C11 (40 μg/ml), and a commercial mouse monoclonal antibody against human fibulin-3 (mAb3-5, 5 μg/ml, Santa Cruz Biotechnology). […] Both in-house generated antibodies show stronger staining in the tumor parenchyma compared to the commercial antibody. In all cases, staining is particularly intense around tumor blood vessels. […] Sections were counterstained to identify endothelial markers and cell nuclei by staining with anti-CD31 and DAPI respectively. (Data not shown).
Specific and striking fibrillar staining patterns of fibulin-3 were observed around tumor blood vessels (magnification: 40×). […] Endothelial cells were stained with anti-CD31 and cell nuclei with the dye DAPI. (Data not shown).

[4] = mouse, in vivo
purified human fibulin-3 = target: T2, purified human fibulin-3 (Homo sapiens, UniProt Q12805); assay: Western blot and dot-blot detection of fibulin-3; assay type: binding
T2 construct: purchased ORIGENE
T2 sequence (Q12805 18-493): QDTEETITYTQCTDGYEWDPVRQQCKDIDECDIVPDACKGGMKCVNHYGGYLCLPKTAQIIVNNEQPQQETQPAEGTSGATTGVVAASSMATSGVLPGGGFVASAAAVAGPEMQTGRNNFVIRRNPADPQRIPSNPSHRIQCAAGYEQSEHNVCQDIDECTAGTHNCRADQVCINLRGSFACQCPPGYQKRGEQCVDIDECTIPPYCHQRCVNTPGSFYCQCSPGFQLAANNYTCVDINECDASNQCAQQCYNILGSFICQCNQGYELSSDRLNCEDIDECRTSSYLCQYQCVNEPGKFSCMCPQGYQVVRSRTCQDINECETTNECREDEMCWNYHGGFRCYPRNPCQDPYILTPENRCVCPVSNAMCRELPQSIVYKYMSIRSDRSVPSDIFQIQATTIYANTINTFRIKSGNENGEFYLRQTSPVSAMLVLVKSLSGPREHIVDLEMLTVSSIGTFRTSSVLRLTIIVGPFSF
Protocol: CNSI glioma cells were transfected with fibulin-3 cDNA (fib3-OE cells) or a control plasmid (control cells) and cultured for 24 h in serum-free conditions. Conditioned medium was collected and probed by Western blotting with anti-Fib3/911 (911), anti-Fib3/912 (912), or their respective preimmune sera (antibodies and sera were used at 1/5000 dilution).
Two rabbit polyclonal antibodies were commissioned against the 23-amino acid peptide sequence of fibulin-3 involved in Notch activation. The peptide was minimally modified to facilitate the formation of a disulfide bridge necessary to form a conformational, tri-dimensional epitope (FIG. 4). Antibodies against fibulin-3 (“anti-Fib3/911” and “anti-Fib3/912”) were purified by affinity chromatography, aliquoted, and prepared in phosphate-buffered saline (PBS) solution for all subsequent tests.
Purified human fibulin-3 (200 ng/lane, ORIGENE) was subjected to SDS-PAGE in reducing and non-reducing conditions and probed with affinity-purified mAb428.3C11 (0.4 to 20 μg/ml, diluted in PBS from a 2 mg/ml stock).
Concentrated, serum-free culture medium from HEK293 cells (1 mg/ml total protein) was probed with anti-human IgG secondary antibody (HRP conjugate) to detect the chains of antibody in reducing and non-reducing conditions. C) Concentrated medium from HEK293 cells (1 mg/ml total protein) was directly used to probe purified human fibulin-3 (resolved by SDS-PAGE in non-reducing conditions).

B1: mAb428.2: mouse monoclonal IgG1 kappa antibody against human fibulin-3 peptide SEQ ID NO:2; VH SEQ ID NO: 3, VL SEQ ID NO: 4 (antibody, V domains shown)
VH: QIQLVQSGPELKKPGETVKISCKASGYSFTTYGMSWVKQAPGKGLKWMGWINTYSGVPTYADDFKGRFAFFLETSASTAYLQINNLKNEDTATYFCARWVDYWGQGTTLTVSS
VL: DIKMTQSPSSMYASLGERVTITCKASQDIKSYLSWHQQKPWKSPKTLIYYATSLADGVPSRFSGSGSGQDYSLTISSLESDDTATYYCLQHGKSPYTFGGGTKLEIK
Q: What does the source list for B1?
A: effect on fibulin-3-induced Notch reporter activity [1]: strong blocking effect; overall survival compared to control IgG1 ([2]; 30 mg/kg IV every day, 8 injections): extended overall survival two-fold; also recorded: significant prolongation of overall survival; tumor growth ([2]; IV 8×30 mg/kg): significant delay in tumor growth; fibulin-3 staining in glioblastoma tissue [3]: detected fibulin-3 in the stroma and capillaries of human GBM; fibulin-3 staining in glioblastoma tissue ([3]; listed as mAb428.3C11): Specific staining of fibulin-3 in tumor tissue; also recorded: detected the same fibrillar pattern observed with a commercial anti-fibulin-3 antibody; accumulation in skin or connective tissues [4]: did not accumulate in these tissues; amount detected through the skull [4]: very small but higher than the amount of a control IgG1 antibody; detection in intracranial tumors [4]: not detected in significant amounts; detection in subcutaneous tumors ([4]; 2.5 mg/kg): still detectable with high intensity of fluorescence; time of accumulation in the liver ([4]; 2.5 mg/kg): >= 6; time of accumulation of fluorescence in the bladder ([4]; 2.5 mg/kg): 2 h; time of clearance from bladder and liver ([4]; 2.5 mg/kg): >= 24 h; detection of fibulin-3 by Western blotting (purified human fibulin-3; SDS-PAGE, reducing and/or non-reducing conditions): high sensitivity of the antibody towards fibulin-3; detection of native fibulin-3 by dot-blotting (purified human fibulin-3; non-reduced fibulin-3 on nitrocellulose, scFv428.2 medium 1 mg/ml, mAb428.2 1 μg/ml): able to detect native fibulin-3 by dot-blotting
